In patent US20260062463A1 (KANGYUAN BIOMEDICAL TECH DALIAN, published 2026):
Residue numbers refer to the chain shown, from its start.

B1: A4-D11 (other)
chain: VQLQESGGGLVQPGGSLRLSCAASGRGFSINTMGWYRQAPGKQRELVAAVTRGGTTNYADSVKGRFTISRDNAKNTVYLQMNSLRPEDTAVYYCHVDEVRQSSWTTSNLWGQGTQVTVSSGGGGSGGGGSGGGGSVQLQESGGGLVQPGGSLRLSCAASGSIFSINTMGWYRQAPGKQRELVAAVTRGGSTNYADSVKGRFTISRDNAKNTVYLQMNSLRPEDTAVYYCHVDEVRQSSWTTSNLWGQGTQVTVSSGGGGSGGGGSGGGGSVQLQESGGGLVQPGGSLRLSCAASGSIFIINTMGWYRRAPGKQRELVAAVTRGGSTNYADSVKGRFTISRDNAKNTVYLQMNSLRPEDTAVYYCHVDEVRQSSWTTSNLWGQGTQVTVSSGGGGSGGGGSGGGGSVQLQESGGGLVQPGGSLRLSCAASGSSFVINTMGWYRQAPGKQRELVAAVTRGGSTNYADSVKGRFTISRDNAKNTVYLQMNSLRPEDTAVYYCHVDEVRQSSWTTSNLWGQGTQVTVSS
B2: A4-C2 (VHH)
chain: VQLQESGGGLVQPGGSLRLSCAASGSAFSINTMGWYRQAPGKQRELVASVTPGGSTNYADSVKGRFTISRDNAKNTIYLQMNSLRPEDTAVYYCHLDEVRESSWTTSNLWGQGTQVTVSSGGGGSGGGGSGGGGSVQLQESGGGLVQPGGSLRLSCAASGSAFSINTMGWYRQAPGKQRELVASVTPGGSTNYADSVKGRFTISRDNAKNTIYLQMNSLRPEDTAVYYCHLDEVRESSWTTSNLWGQGTQVTVSSGGGGSGGGGSGGGGSVQLQESGGGLVQPGGSLRLSCAASGSAFSINTMGWYRQAPGKQRELVASVTPGGSTNYADSVKGRFTISRDNAKNTIYLQMNSLRPEDTAVYYCHLDEVRESSWTTSNLWGQGTQVTVSS
B3: A4-D1 (VHH)
chain: VQLQESGGGLAQAGGSLRLSCAASGRGFSINTMGWYRQAPGKQRELVAAVTRGGTTNYADSVKGRFTISRDNAKNTVYLQMNSLRPEDTAVYYCHVDEVRQSSWTTSNLWGQGTQVTVSSGGGGSGGGGSGGGGSVQLQESGGGLAQAGGSLRLSCAASGRGFSINTMGWYRQAPGKQRELVAAVTRGGTTNYADSVKGRFTISRDNAKNTVYLQMNSLRPEDTAVYYCHVDEVRQSSWTTSNLWGQGTQVTVSSGGGGSGGGGSGGGGSVQLQESGGGLAQAGGSLRLSCAASGRGFSINTMGWYRQAPGKQRELVAAVTRGGTTNYADSVKGRFTISRDNAKNTVYLQMNSLRPEDTAVYYCHVDEVRQSSWTTSNLWGQGTQVTVSSGGGGSGGGGSGGGGSVQLQESGGGLAQAGGSLRLSCAASGRGFSINTMGWYRQAPGKQRELVAAVTRGGTTNYADSVKGRFTISRDNAKNTVYLQMNSLRPEDTAVYYCHVDEVRQSSWTTSNLWGQGTQVTVSS
B4: A4-D4 (VHH)
chain: B3 chain with A146V, A148P
B5: A4-D3 (VHH)
chain: B3 chain with A416V, A418P
B6: A4-C9 (bispecific antibody)
chain: VQLQESGGGLVQPGGSLRLSCAASGSNFSINTMGWYRQAPGKQRELVATVTRGGDTNYADSVKGRFTISRDNAKNTVYLQMNSLRPEDTAVYYCHVDEIRESSWTTSNLWGQGTQVTVSSGGGGSGGGGSGGGGSVQLQESGGGLVQPGGSLRLSCAASGSNFSINTMGWYRQAPGKQRELVAALTRGGSTNYADSVKGRFTISRDNAKNTVYLQMNSLRPEDTAVYYCHVDEVRESSWTTSNLWGQGTQVTVSSGGGGSGGGGSGGGGSVQLQESGGGLVQPGGSLRLSCAASGSNFRINTMGWYRQAPGKQRELVAPVTRGGSTNYADSVKGRFTISRDNAKNTVYLQMNSLRPEDTAVYYCHVDEVRESSWTTSNLWGQGTQVTVSS
B7: A4-C7 (bispecific antibody)
chain: B6 chain with S164R, A184P, L185V, N297S, R299T, P319A, D330G, V347I, V369I, E371Q
B8: A4-C6 (bispecific antibody)
chain: B6 chain with S29R, T49P, D55S, I99V, R299S, P319T, S325D, V369I
B9: A4-C5 (bispecific antibody)
chain: B6 chain with S29R, D55S, A73P, I99V, A184T, L185V, S190D, V234I, P319T, A343P
B10: A4-C1 (VHH)
chain: VQLQESGGGLVQPGGSLRLSCAASGSGFSINTMGWYRQAPGKQRELVATVTRDGSTNYADFVKGRFTISRDNAKNTVYLQMNSLRPEDTAVYYCHLDEVRESSWTTSNLWGQGTQVTVSSGGGGSGGGGSGGGGSVQLQESGGGLVQPGGSLRLSCAASGSGFSINTMGWYRQAPGKQRELVATVTRDGSTNYADFVKGRFTISRDNAKNTVYLQMNSLRPEDTAVYYCHLDEVRESSWTTSNLWGQGTQVTVSSGGGGSGGGGSGGGGSVQLQESGGGLVQPGGSLRLSCAASGSGFSINTMGWYRQAPGKQRELVATVTRDGSTNYADFVKGRFTISRDNAKNTVYLQMNSLRPEDTAVYYCHLDEVRESSWTTSNLWGQGTQVTVSS
B11: A4-C4 (bispecific antibody)
chain: VQLQESGGGLVQAGGSLRLSCAASGSRFSINTMGWYRQAPGKQREFVATVTRGGNTNYAESVKGRFTISRDNAKNTVYLQMNSLRPEDTAVYYCHVDEVRDSSWTTSNIWGQGTQVTVSSGGGGSGGGGSGGGGSVQLQESGGGLVQAGGSLRLSCAASGSRFSINTMGWYRQAPGKQREFVATVTRGGNTNYAESVKGRFTISRDNAKNTVYLQMNSLRPEDTAVYYCHVDEVRDSSWTTSNIWGQGTQVTVSSGGGGSGGGGSGGGGSVQLQESGGGLVQPGGSLRLSCAASGSNFRINTMGWYRQAPGKQRELVATVTRGGSTNYADSVKGRFTISRDNPKDTVYLQMNSLRPEDTAVYYCHVDEVRESSWTTSNLWGQGTQVTVSS
B12: A4-B2 (bispecific antibody)
chain: VQLQESGGGLVQAGGSLRLSCAASGSRFSINTMGWYRQAPGKQREFVATVTRGGNTNYAESVKGRFTISRDNAKNTVYLQMNSLRPEDTAVYYCHVDEVRDSSWTTSNIWGQGTQVTVSSGGGGSGGGGSGGGGSVQLQESGGGLVQAGGSLRLSCAASGSTFSINTMGWYRQAPGKQRELVATITRGGNTNYADSVKGRFTISRDNAKNTVYLQMNSLRPEDTAVYYCHVDEVRQSSWTTSNLWGQGTQVTVSS

Key:
Experiment in all cases: SPR, AAV amine-coupled to CM5 chip
AAV8 = target: T1, AAV8 (adeno-associated virus 8, Assembled 60-mer capsid of VP1/VP2/VP3 (nested products of one cap gene), amine-coupled to a CM5 chip; the letters give one VP1 subunit only.)
T1 construct: also called adeno-associated virus serotype 8
T1 chain: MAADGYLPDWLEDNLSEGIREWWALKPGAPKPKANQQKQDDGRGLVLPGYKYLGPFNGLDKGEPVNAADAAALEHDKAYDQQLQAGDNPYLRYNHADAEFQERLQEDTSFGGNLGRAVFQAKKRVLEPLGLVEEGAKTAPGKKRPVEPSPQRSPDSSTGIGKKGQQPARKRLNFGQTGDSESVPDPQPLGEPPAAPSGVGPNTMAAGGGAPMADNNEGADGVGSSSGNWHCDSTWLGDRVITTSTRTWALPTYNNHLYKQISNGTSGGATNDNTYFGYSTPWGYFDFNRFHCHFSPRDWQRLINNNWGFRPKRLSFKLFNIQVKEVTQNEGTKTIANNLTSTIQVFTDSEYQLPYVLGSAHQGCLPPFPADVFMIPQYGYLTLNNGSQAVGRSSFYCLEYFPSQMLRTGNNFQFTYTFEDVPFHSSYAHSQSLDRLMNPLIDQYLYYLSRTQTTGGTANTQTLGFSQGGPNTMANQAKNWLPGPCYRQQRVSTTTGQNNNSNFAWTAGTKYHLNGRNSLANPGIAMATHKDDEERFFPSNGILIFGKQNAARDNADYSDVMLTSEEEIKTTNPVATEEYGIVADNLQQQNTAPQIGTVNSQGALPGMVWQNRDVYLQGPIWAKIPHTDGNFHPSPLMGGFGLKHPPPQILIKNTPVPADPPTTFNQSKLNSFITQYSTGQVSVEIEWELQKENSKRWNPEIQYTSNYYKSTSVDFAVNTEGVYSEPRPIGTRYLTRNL

AAV9 = target: T2, AAV9 (adeno-associated virus 9, Assembled 60-mer capsid of VP1/VP2/VP3 (nested products of one cap gene), amine-coupled to a CM5 chip; the letters give one VP1 subunit only.)
T2 construct: also called adeno-associated virus serotype 9

AAV5 = target: T3, AAV5 (adeno-associated virus 5, Assembled 60-mer capsid of VP1/VP2/VP3 (nested products of one cap gene), amine-coupled to a CM5 chip; the letters give one VP1 subunit only.)
T3 construct: also called adeno-associated virus serotype 5

| Binder | Kd (AAV8) [nM] | koff (AAV8) [s⁻¹] | kon (AAV8) [M⁻¹ s⁻¹] | Kd (AAV9) [nM] | koff (AAV9) [s⁻¹] | kon (AAV9) [M⁻¹ s⁻¹] | Kd (AAV5) [nM] | koff (AAV5) [s⁻¹] | kon (AAV5) [M⁻¹ s⁻¹] |
| --- | --- | --- | --- | --- | --- | --- | --- | --- | --- |
| B1 | 0.319 | 1.5e-05 | 47000 |  |  |  |  |  |  |
| B2 | 0.359 | 5e-05 | 139000 | 0.486 | 0.000125 | 257000 | 0.691 | 0.000134 | 194000 |
| B3 |  |  |  |  |  |  | 0.0576 | 2.2e-06 | 38200 |
| B4 |  |  |  |  |  |  | 0.657 | 1.73e-05 | 26300 |
| B5 |  |  |  |  |  |  | 0.209 | 3.6e-06 | 17300 |
| B6 | 1.14 | 0.00013 | 114000 | 0.669 | 0.00013 | 194000 | 0.777 | 5e-05 | 64300 |
| B7 | 3.7 | 0.00047 | 127000 | 0.127 | 1.75e-05 | 137000 | 0.0732 | 3.2e-05 | 437000 |
| B8 | 2.67 | 0.00044 | 165000 | 0.55 | 2.5e-05 | 45400 | 0.785 | 0.000139 | 177000 |
| B9 | 4.97 | 0.00091 | 183000 | 1.68 | 0.0002 | 119000 | 7.86 | 0.0013 | 165000 |
| B10 | 9.2 | 0.00164 | 178000 | ≤ 1.03 | ≤ 1e-05 | 9690 | 13.2 | 0.00138 | 104000 |
| B11 | 2.36 | 0.00025 | 106000 | 1.87 | 0.00031 | 165000 | 6.72 | 0.00121 | 180000 |
| B12 | 1.02 | 0.00014 | 138000 | 8.35 | 0.0008 | 95800 | 7.38 | 0.00117 | 159000 |
